Among the data in PMC6282620, “Structural and biochemical characterization of Plasmodium falciparum Hsp70‐x reveals functional versatility of its C‐terminal EEVN motif” (Proteins, 2018) are Kd, koff and kon values, retold here.

Assay [1] concerns the target Plasmodium falciparum Hsp70‐x (full length) (Plasmodium falciparum). Nature of the assay: SPR; PfHsp70‐x or PfHsp70‐xT immobilised on ProteOn GLC chips, hHop as analyte at 125-2000 nM, 25°C, PBS‐Tween pH 7.4, with 5 mM ATP, Langmuir model. Background: Surface plasmon resonance follows binding to a sensor surface in real time, without labels.
Assay [2] concerns the target PfHsp70‐x C‐terminal truncated version with a missing EEVN motif (Plasmodium falciparum). The description is as above.
Assay [3] concerns the target Plasmodium falciparum Hsp70‐x (full length) (Plasmodium falciparum). Description: SPR; PfHsp70‐x or PfHsp70‐xT immobilised on ProteOn GLC chips, hHop as analyte at 125-2000 nM, 25°C, PBS‐Tween pH 7.4, with 5 mM ADP, Langmuir model.
The target of assay [4] is PfHsp70‐x C‐terminal truncated version with a missing EEVN motif (Plasmodium falciparum). The description is as above.
Assay [5] concerns the target Plasmodium falciparum Hsp70‐x (full length) (Plasmodium falciparum). Description: SPR; PfHsp70‐x or PfHsp70‐xT immobilised on ProteOn GLC chips, hHop as analyte at 125-2000 nM, 25°C, PBS‐Tween pH 7.4, no nucleotide, Langmuir model.
Assay [6] has as its target PfHsp70‐x C‐terminal truncated version with a missing EEVN motif (Plasmodium falciparum). Described as above.

Broadly, the Kd is the constant that tells how readily two partners part at equilibrium. Broadly, the koff is a measure of how fast the partners let go of each other. A low value points to a long-lived complex. Broadly, the kon is the second-order rate constant of association. Read a high kon as faster complex formation. In the case of “human Hsp70‐Hsp90 organizing protein (from UniProt P31948 1-543) (natural protein)”, the Kd in assay [1] is 380 nM; in assay [2] it was 41000 nM; in assay [3], 23.1 nM; in assay [4], 1660 nM; in assay [5], 30.1 nM; in assay [6], 2100 nM. Moreover, the koff in assay [1] worked out at 0.00044 s⁻¹; in assay [2], 0.00032 s⁻¹; in assay [3], 3.7e-05 s⁻¹; in assay [4] it was 2.1e-05 s⁻¹; in assay [5], 2.3e-05 s⁻¹; in assay [6], 1.01e-05 s⁻¹. In addition, the kon in assay [1] turned out to be 3470 M⁻¹ s⁻¹; in assay [2], 54.1 M⁻¹ s⁻¹; in assay [3] it was 3300 M⁻¹ s⁻¹; in assay [4] it was 42.6 M⁻¹ s⁻¹; in assay [5], 4300 M⁻¹ s⁻¹; in assay [6], 24.7 M⁻¹ s⁻¹.
